Measured values as given in patent publication US20150132859A1.

Assays:
[1] = target: EcSS-TpN17-Bi(DDS) (Treponema pallidum (TpN17 part); E. coli (SlyD part)); assay: DAGS ECL; detection PmSS-TpN17-Ru; EcSkp-VcLp15 0 ug/ml in R1
[2] = target: EcSS-TpN17-Bi(DDS) (Treponema pallidum (TpN17 part); E. coli (SlyD part)); assay: DAGS ECL; detection PmSS-TpN17-Ru; EcSlyD-VcLp15 0 ug/ml in R1
[3] = target: EcFkpA-TpN17-Bi(DDS) (Treponema pallidum (TpN17 part); E. coli (FkpA part)); assay: DAGS ECL; detection EcSkp-TpN17-Ru; EcSkp-VcLp15 0 ug/ml in R1
[4] = target: EcFkpA-TpN17-Bi(DDS) (Treponema pallidum (TpN17 part); E. coli (FkpA part)); assay: DAGS ECL; detection EcSkp-TpN17-Ru; EcSlyD-VcLp15 0 ug/ml in R1
[5] = target: EcSS-TpN17-Bi(DDS) (Treponema pallidum (TpN17 part); E. coli (SlyD part)); assay: DAGS ECL; detection PmSS-TpN17-Ru; competitor EcSkp-VcLp15 0.1 ug/ml in R1
[6] = target: EcSS-TpN17-Bi(DDS) (Treponema pallidum (TpN17 part); E. coli (SlyD part)); assay: DAGS ECL; detection PmSS-TpN17-Ru; competitor EcSkp-VcLp15 1.0 ug/ml in R1
[7] = target: EcSS-TpN17-Bi(DDS) (Treponema pallidum (TpN17 part); E. coli (SlyD part)); assay: DAGS ECL; detection PmSS-TpN17-Ru; competitor EcSlyD-VcLp15 0.1 ug/ml in R1
[8] = target: EcSS-TpN17-Bi(DDS) (Treponema pallidum (TpN17 part); E. coli (SlyD part)); assay: DAGS ECL; detection PmSS-TpN17-Ru; competitor EcSlyD-VcLp15 0.2 ug/ml in R1
[9] = target: EcSS-TpN17-Bi(DDS) (Treponema pallidum (TpN17 part); E. coli (SlyD part)); assay: DAGS ECL; detection PmSS-TpN17-Ru; competitor EcSlyD-VcLp15 0.3 ug/ml in R1
[10] = target: EcSS-TpN17-Bi(DDS) (Treponema pallidum (TpN17 part); E. coli (SlyD part)); assay: DAGS ECL; detection PmSS-TpN17-Ru; competitor EcSlyD-VcLp15 0.5 ug/ml in R1
[11] = target: EcSS-TpN17-Bi(DDS) (Treponema pallidum (TpN17 part); E. coli (SlyD part)); assay: DAGS ECL; detection PmSS-TpN17-Ru; competitor EcSlyD-VcLp15 1.0 ug/ml in R1
[12] = target: EcFkpA-TpN17-Bi(DDS) (Treponema pallidum (TpN17 part); E. coli (FkpA part)); assay: DAGS ECL; detection EcSkp-TpN17-Ru; competitor EcSkp-VcLp15 0.1 ug/ml in R1
[13] = target: EcFkpA-TpN17-Bi(DDS) (Treponema pallidum (TpN17 part); E. coli (FkpA part)); assay: DAGS ECL; detection EcSkp-TpN17-Ru; competitor EcSkp-VcLp15 1.0 ug/ml in R1
[14] = target: EcFkpA-TpN17-Bi(DDS) (Treponema pallidum (TpN17 part); E. coli (FkpA part)); assay: DAGS ECL; detection EcSkp-TpN17-Ru; competitor EcSlyD-VcLp15 0.1 ug/ml in R1
[15] = target: EcFkpA-TpN17-Bi(DDS) (Treponema pallidum (TpN17 part); E. coli (FkpA part)); assay: DAGS ECL; detection EcSkp-TpN17-Ru; competitor EcSlyD-VcLp15 0.2 ug/ml in R1
[16] = target: EcFkpA-TpN17-Bi(DDS) (Treponema pallidum (TpN17 part); E. coli (FkpA part)); assay: DAGS ECL; detection EcSkp-TpN17-Ru; competitor EcSlyD-VcLp15 0.3 ug/ml in R1
[17] = target: EcFkpA-TpN17-Bi(DDS) (Treponema pallidum (TpN17 part); E. coli (FkpA part)); assay: DAGS ECL; detection EcSkp-TpN17-Ru; competitor EcSlyD-VcLp15 0.5 ug/ml in R1
[18] = target: EcFkpA-TpN17-Bi(DDS) (Treponema pallidum (TpN17 part); E. coli (FkpA part)); assay: DAGS ECL; detection EcSkp-TpN17-Ru; competitor EcSlyD-VcLp15 1.0 ug/ml in R1

Trina #0646
counts [1]: 651 counts | counts [2]: 634 counts | counts [3]: 840 counts | counts [4]: 797 counts | counts [5]: 659 counts | counts [6]: 646 counts | counts [7]: 617 counts | counts [8]: 634 counts | counts [9]: 628 counts | counts [10]: 621 counts | counts [11]: 613 counts | counts [12]: 847 counts | counts [13]: 815 counts | counts [14]: 795 counts | counts [15]: 817 counts | counts [16]: 802 counts | counts [17]: 784 counts | counts [18]: 784 counts

Trina #0642
counts [1]: 673 counts | counts [2]: 657 counts | counts [3]: 750 counts | counts [4]: 778 counts | counts [5]: 673 counts | counts [6]: 632 counts | counts [7]: 613 counts | counts [8]: 638 counts | counts [9]: 626 counts | counts [10]: 623 counts | counts [11]: 610 counts | counts [12]: 757 counts | counts [13]: 744 counts | counts [14]: 716 counts | counts [15]: 722 counts | counts [16]: 698 counts | counts [17]: 698 counts | counts [18]: 661 counts

Trina #0647
counts [2]: 623 counts | counts [4]: 774 counts | counts [7]: 614 counts | counts [8]: 606 counts | counts [9]: 620 counts | counts [10]: 618 counts | counts [11]: 623 counts | counts [14]: 786 counts | counts [15]: 764 counts | counts [16]: 773 counts | counts [17]: 762 counts | counts [18]: 742 counts
